Reference: US20090048117A1, “MODULATION OF IMMUNE SYSTEM FUNCTION BY MODULATION OF POLYPEPTIDE ARGININE METHYLTRANSFERASES” (President and Fellows of Harvard College, priority 2003, published 2009)

Columns and labels:
Format in all cases: cell-based
[1] = system: 3X NFAT-CAT reporter; assay: 3X NFAT-CAT reporter assay in HepG2 cells
From the text: FIG. 8 depicts CAT assay results (left) and a bar graph quantitating the relative fold induction of CAT activity (right) in HepG2 cells transfected with a 3X NFAT-CAT reporter gene construct (containing three NFAT binding sites) and either a control expression plasmid or an NFAT family expression plasmid (NFATp, NFATc, NFAT3 or NFAT4), alone (−) or in combination with a NIP45 expression plasmid (^+).
To test for a functional role of NIP45 in NFAT-driven transcription, NIP45 was expressed at high levels in HepG2 cells. […] HepG2 cells were transfected with a 3X NFAT-CAT reporter from the IL-2 gene (Venkataraman, L. et al. (1994) Immunity 1:189-196) and control or expression plasmids for a NIP45 and NFAT family members (NFATp, NFATc, NFAT3, NFAT4). HepG2 cells were transfected by the DEAE-Dextran method as described in Hoey, T. et al. (1995) supra, and CAT assays were performed according to standard methodologies. One representative assay for each combination is shown adjacent to a bar graph representing relative CAT activity for each group. Fold induction was calculated by normalizing the CAT activity of cells transfected with the CAT reporter and each parental expression vector to one. Values represent the relative level of CAT expression above this control transfection. All transfections were performed at least three times with one representative autoradiograph shown.

[2] = system: IL-4 promoter; assay: IL-4-CAT reporter assay in HepG2 cells; settings: NIP45 together with NFATp and c-Maf
Method: FIG. 9 depicts CAT assay results (left) and a bar graph quantitating the relative fold induction of CAT activity (right) in HepG2 cells transfected with an IL-4-CAT reporter gene, construct (extending to −732 bp of the IL-4 promoter) and combinations of NFATp, NIP45 and/or c-Maf expression constructs, as indicated.
Although a reporter construct containing multiple copies of the NFAT binding site provides a sensitive method for measuring transactivation by NFAT and NIP45, it was determined if NIP45 was functional in the context of a native NFAT-dependent promoter. IL-4 expression is highly tissue specific and restricted to the Th2 subset of T cells and to mast cells. […] Thus, the IL-4 promoter is not active in the HepG2 cell line but can be activated by the introduction of NFATp and c-maf. In cotransfection experiments carried out as described above, HepG2 cells were transfected with an IL-4-CAT reporter construct (extending to −732 bp of the IL-4 promoter) and expression vectors or controls for NIP45, NFATp and c-Maf. The controls for NIP45 was a frame shift mutant at amino acid 13. Controls for NFATp and c-Maf were the empty expression vectors pREP4 and pMEX respectively (Ho, I. C. et al. (1996) Cell 85:973-983). The results of these experiments are shown in FIG. 9 (representative CAT assays and bar graphs are depicted as in FIG. 8).

[3] = system: M12 B lymphoma cells; assay: Endogenous IL-4 production by transfected M12 B lymphoma cells (ELISA); settings: M12 cells cotransfected with NFATp and c-Maf; supernatants at 72 hours
Method: FIG. 10 is a bar graph depicting the level of IL-4 (in pg/ml) in the supernatants of M12 B lymphoma cells transiently cotransfected with expression plasmids for NFATp, c-Maf and a pCI vector control (top bar) or expression plasmids for NFATp, c-Maf and NIP45 (bottom bar).
M12 cells were transiently transfected by electroporation as previously described (Ho, I. C. et al. (1996) Cell 85:973-983) by incubating 3×10^6 cells in 0.4 ml of PBS with 5 μg of each plasmid for 10 minutes at room temperature prior to electroporation at 975 μF, 280 V. Levels of IL-4 in the supernatants harvested 72 hours later were measured by a commercially available IL-4 ELISA (Pharmingen), performed according to the manufacturer's instructions except with modification as described (Ho, I. C. et al. (1996) supra). Four independent sets of transient transfections were done and assayed for secretion of IL-4 into the culture supernatant. For each set of transfections, inclusion of NIP45 led to a dramatic increase in IL-4 production.

B1: NIP45: 45 Kd NFAT interacting protein of 412 amino acids (SEQ ID NO: 2), expressed from a transfected expression plasmid (protein, listed as Mus musculus)
chain: MAEPLRGRGPRSRGGRGARRARGARGRCPRARQSPARLIPDTVLVDLVSDSDEEVLEVADPVEVPVARLPAPAKPEQDSDSDSEGAAEGPAGAPRTLVRRRRRRLLDPGEAPVVPVYSGKVQSSLNLIPDNSSLLKLCPSEPEDEADLTNSGSSPSEDDALPSGSPWRKKLRKKCEKEEKKMEEFPDQDISPLPQPSSRNKSRKHTEALQKLREVNKRLQDLRSCLSPKQHQSPALQSTDDEVVLVEGPVLPQSSRLFTLKIRCRADLVRLPVRMSEPLQNVVDHMANHLGVSPNRILLLFGESELSPTATPSTLKLGVADIIDCVVLASSSEATETSQELRLRVQGKEKHQMLEISLSPDSPLKVLMSHYEEAMGLSGHKLSFFFDGTKLSGKELPADLGLESGDLIEVWG
increase in CAT activity over vector alone ([1]; NIP45 cotransfected with NFATp): 25-30 fold
increase in CAT activity relative to transfection with NFATp alone ([1]; NIP45 cotransfected with NFATp): 4-5 fold
CAT expression from 3X NFAT-CAT reporter ([1]; NIP45 transfected alone): did not lead to a significant increase
increase in activity of the IL-4 promoter relative to NFATp and c-Maf alone [2]: 9 fold
endogenous IL-4 production relative to cells that did not receive NIP45 [3]: 50-200 fold
